Test results: paper PMC4150794, “Homodimerization of RBPMS2 through a new RRM-interaction motif is necessary to control smooth muscle plasticity” (Nucleic Acids Research, 2014)

Biological target: the molecule itself
Assay: SEC-MALS; Superdex 75 10/300, 20 mM Tris-HCl pH 8, 300 mM NaCl; loaded at 2 mg/ml (RBPMS2-Nter) or 4 mg/ml (RBPMS2-Nter-L49E); monomer to dimer

B1: RBPMS2-Nter (human RBPMS2 residues 27-117, RRM domain) (domain or fragment)
chain: not shown
notes: 15N- or 15N/13C-labelled for NMR; also called pET22-RBPMS2-Nter; RRM domain of RBPMS2; source: E. coli BL231DE3 (so in the source), purified (His Trap FF)
In the case of B1, the “stoichiometry N” value is reported as 2.
